Laboratory results reported in publication PMC11214410 (iScience, 2024).

Biological target: T1, His-p97 F539A (human, UniProt P55072 1-806, F539A)
T1 construct: Homohexamer in the cryo-EM structure; also called F539A (D2); D2 mutant
Assay: cross-linking; purified p97 F539A (1.26 mg/mL) and its adaptor (0.66 mg/mL) in 50mM HEPES pH 7.5, 30mM KCl, 10, 50 or 100 μM DTSSP, 30 min room temperature; trypsin, LC-MS/MS
Conditions: both partners purified

T1 sequence (P55072 whole entry F539A): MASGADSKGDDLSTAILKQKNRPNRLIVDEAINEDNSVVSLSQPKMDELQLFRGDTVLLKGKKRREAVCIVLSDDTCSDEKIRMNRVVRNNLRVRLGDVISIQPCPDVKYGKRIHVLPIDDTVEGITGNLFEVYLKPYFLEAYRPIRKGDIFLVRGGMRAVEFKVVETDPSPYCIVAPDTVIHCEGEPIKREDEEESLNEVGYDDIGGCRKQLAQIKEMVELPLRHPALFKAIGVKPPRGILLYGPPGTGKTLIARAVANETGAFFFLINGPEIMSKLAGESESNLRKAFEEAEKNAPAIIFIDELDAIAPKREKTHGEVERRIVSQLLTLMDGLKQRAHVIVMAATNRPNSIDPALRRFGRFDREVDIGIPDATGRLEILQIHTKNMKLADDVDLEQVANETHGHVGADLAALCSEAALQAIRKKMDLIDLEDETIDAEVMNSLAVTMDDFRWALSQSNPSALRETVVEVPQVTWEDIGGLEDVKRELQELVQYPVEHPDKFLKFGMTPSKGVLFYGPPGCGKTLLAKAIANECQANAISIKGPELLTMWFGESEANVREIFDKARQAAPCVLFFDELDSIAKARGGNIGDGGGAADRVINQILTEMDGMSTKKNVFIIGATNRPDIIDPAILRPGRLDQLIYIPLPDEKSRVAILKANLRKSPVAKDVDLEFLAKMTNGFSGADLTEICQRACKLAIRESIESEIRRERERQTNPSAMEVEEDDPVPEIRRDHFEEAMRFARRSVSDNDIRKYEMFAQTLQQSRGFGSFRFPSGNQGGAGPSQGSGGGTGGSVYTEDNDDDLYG

B1: Npl4 (untagged) (natural protein, rat, UniProt Q9ES54 1-608, looked up)
chain: MAESIIIRVQSPDGVKRITATKRETAATFLKKVAKEFGFQNNGFSVYINRNKTGEITASSSKSLHLLKIKHGDLLFLFPSSLAGPSSEMETSTSVGLKAFGAPHVVEDEIDQYLSKQDGKIYRSRDPQLCRHGPLGKCVHCVPLEPFDEDYLNHLEPPVKHMSFHAYIRKLTGGADKGKFVALENISCKIKSGCEGHLPWPNGICTKCQPSAITLNRQKYRHVDNIMFENHTVADRFLDFWRKTGNQHFGYLYGRYTEHKDIPLGIRAEVAAIYEPPQIGTQNSLELLEDPKAEVVDEIASKLGLRKVGWIFTDLVSEDTRKGTVRYSRNKDTYFLSSEECITAGDFQNKHPNICRLSPDGHFGSKFVTAVATGGPDNQVHFEGYQVSNQCMALVRDECLLPCKDAPELGYAKESSSEQYVPDVFYKDIDKFGNEITQLARPLPVEYLIIDITTTFPKDPVYTFSISQNPFPIENRDVLGETQDFHSLATYLSQNTSSVFLDTISDFHLLLFLVTNEVMPLQDSISLLLEAVRTRNEELAQTWKKSEQWATIEQLCSTVGVQLPGLHEFGAVGGSARAATSAMWACQHCTFMNQPGTGHCEMCSLPRT
notes: Npl4, untagged, expressed from pET30-Npl4; the cross-linking data were searched against rat Npl4; In the cryo-EM and cross-linking experiments Npl4 stood as part of the Ufd1/Npl4 heterodimer; source: E. coli BL21 (DE3), in lysate
B1: binds.
